We go through two molecules from US20190241662A1 (ADAGENE, published 2019).

Assay [1] addresses T1, human TNFR1 on HEK293F cells (human, UniProt P19438 30-455).
T1 construct: whole, on cells; also called CD120a
T1 sequence (looked up): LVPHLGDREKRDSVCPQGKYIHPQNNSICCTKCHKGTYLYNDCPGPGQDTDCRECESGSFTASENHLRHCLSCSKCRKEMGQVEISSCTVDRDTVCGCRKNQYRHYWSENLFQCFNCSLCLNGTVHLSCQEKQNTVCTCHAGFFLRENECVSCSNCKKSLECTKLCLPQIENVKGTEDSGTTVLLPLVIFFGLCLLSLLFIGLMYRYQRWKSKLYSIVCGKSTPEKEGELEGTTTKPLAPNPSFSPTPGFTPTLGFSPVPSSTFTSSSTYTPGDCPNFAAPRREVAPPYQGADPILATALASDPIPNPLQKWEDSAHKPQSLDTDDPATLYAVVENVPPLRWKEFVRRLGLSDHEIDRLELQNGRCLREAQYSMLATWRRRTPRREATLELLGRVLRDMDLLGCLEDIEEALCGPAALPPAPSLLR
Put plainly: flow cytometry, transfected HEK293F cells [Cont.]. A general note: In flow cytometry, cells or beads pass a laser one at a time.

The target in assay [2] is T2, full-length human CTLA4 expressed on cells (human, UniProt P16410 36-223).
T2 construct: whole, on cells; also called HEK293F/hCTLA-4 cells; HEK293F/hCTLA4 cells
T2 sequence (looked up): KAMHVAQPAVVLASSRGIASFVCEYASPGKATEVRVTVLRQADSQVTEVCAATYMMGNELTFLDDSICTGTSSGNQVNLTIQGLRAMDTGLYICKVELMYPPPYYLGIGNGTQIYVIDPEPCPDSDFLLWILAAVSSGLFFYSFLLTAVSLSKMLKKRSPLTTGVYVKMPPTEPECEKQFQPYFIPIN
Put plainly: flow cytometry, transfected HEK293F cells, antibody concentration not printed [Cont.]. How it is done: (§1) The affinities of the antibodies were also assessed against human and mouse CTLA4 transiently expressed on the surface of HEK293F cells (FIG. 2). Briefly, HEK293F cells were transfected with a plasmid expressing full-length human, monkey or mouse CTLA4 from a bicistronic IRES vector also encoding EGFP, and EGFP expression was used to identify the transfected cells. After 48 hours, the mammalian cell suspension (2×10⁵/well) was transferred to an Eppendorf tube, centrifuged, the supernatant was discarded, the cells were resuspended with 1 mL PBSA (to a density is 4×10⁶ cells/mL), and added to a 96 well plate. […] The cells were then washed once prior to analysis by flow cytometry (Beckman® CytoFlex).

Assay [3] concerns the target T3, full-length mouse CTLA4 expressed on HEK293F cells (mouse, UniProt P09793 36-223).
T3 construct: whole, on cells
The description is as above. The protocol:
as §1

B1: TY21591 (antibody, V domains shown)
VH: EVQLVESGGGLVQPGGSLRLSCAASGFSLSTGGVAVSWIRQAPGKGLEWIGEIYHSGSTYYSPSLKSRVTISRDNSKNTLYLQLNSLRAEDTAVYYCARRIATATYFDYWGQGTLVTVSS
VL: DIQLTQSPSSLSASVGDRVTITCRASQTVFSRYLAWYQQKPGKAPKLLIYDASNRATGIPSRFSGSGSGTDFTLTISSLQPEDFATYYCQQSYYWPPWTFGQGTKVEIK
notes: human IgG1 (hIgG1) from Fab hit B15756
In the case of B1, the binding result in assay [1] is reported as “no binding (tested: 100 nM)”.

B2: TY21687 (antibody, V domains shown)
VH: EVQLVESGGGLVQPGGSLRLSCAASGFTFSGYAIHWVRQAPGKGLEWIGIISPSGGGTKYAQKFQGRVTISRDNSKNTLYLQLNSLRAEDTAVYYCARHPFAYWGQGTLVTVSS
VL: DIQLTQSPSSLSASVGDRVTITCRASQSVDFYGISFLDWYQQKPGKAPKLLIYDASNRATGIPSRFSGSGSGTDFTLTISSLQPEDFATYYCQQYVSSPPEYTFGQGTKVEIK
notes: human IgG1 (hIgG1) from Fab hit B15700
For B2, the “% of cells in upper right quadrant (Q2)” value stood at 50.4 in assay [2] and 33.4 in assay [3]. The “Mean” value in assay [2] is 433000; in assay [3], 633000.
